B1: Proteinase K: proteolytic enzyme cleaving peptide bonds with F in P1 position (protein, UniProt P06873 106-384, looked up)
Proteinase K: AAQTNAPWGLARISSTSPGTSTYYYDESAGQGSCVYVIDTGIEASHPEFEGRAQMVKTYYYSSRDGNGHGTHCAGTVGSRTYGVAKKTQLFGVKVLDDNGSGQYSTIIAGMDFVASDKNNRNCPKGVVASLSLGGGYSSSVNSAAARLQSSGVMVAVAAGNNNADARNYSPASEPSVCTVGASDRYDRRSSFSNYGSVLDIFGPGTSILSTWIGGSTRSISGTSMATPHVAGLAAYLMTLGKTTAASACRYIADTANKGDLSNIPFGTVNLLAYNNYQA
B2: Thermolysin: proteolytic enzyme (metalloprotease) (protein, UniProt P00800 233-548, looked up)
Thermolysin: ITGTSTVGVGRGVLGDQKNINTTYSTYYYLQDNTRGNGIFTYDAKYRTTLPGSLWADADNQFFASYDAPAVDAHYYAGVTYDYYKNVHNRLSYDGNNAAIRSSVHYSQGYNNAFWNGSQMVYGDGDGQTFIPLSGGIDVVAHELTHAVTDYTAGLIYQNESGAINEAISDIFGTLVEFYANKNPDWEIGEDVYTPGISGDSLRSMSDPAKYGDPDHYSKRYTGTQDNGGVHINSGIINKAAYLISQGGTHYGVSVVGIGRDKLGKIFYRALTQYLTPTSNFSQLRAAAVQSATDLYGSTSQEVASVKQAFDAVGVK

Tested on: Fmoc-FRGD-PEGA surface tethered peptide (Fmoc-F↓RGD bond)
Assay: Enzymatic hydrolysis of PEGA surface tethered peptides analysed by HPLC
Assay type: biochemical
Conditions: for Fmoc-F-OH (%) / Fmoc-FR-OH (%): 37° C., 2 hours in enzyme solution, 100% = 4.08 nmol maximum Fmoc-peptide hydrolysed, n=9; for cleavage and selectivity for Fmoc-F↓RGD versus Fmoc-FR↓GD: HPLC
Description: Three proteolytic enzymes, chymotrypsin, thermolysin and proteinase K, that are known to cleave peptide bonds involving F amino acids in the P1 position were tested for their ability to selectively hydrolyse Fmoc-F↓RGD bond^15. […] Surfaces were incubated at 37° C. for 2 hours in enzyme solution (concentrations and activities are shown in Table 1) in phosphate buffer and the cleaved products were analysed by HPLC.
Surfaces were rinsed in a known volume (at least 4 ml) of a 50:50 mixture of acetonitrile (ACN) and water. The rinsing solution was kept and added to the enzyme solution that the surface was in. 1 ml of this solution was placed into an HPLC autosampler vial. The HPLC machine (manufactured by Dionex; California, USA) consisted of a P.680 HPLC pump joined to an ASI-100 Automated Sample Injector with a Dionex UVD17OU detector. The column was an EC 250/4.6 Nucleosil 100-5 C18, with an internal diameter of 4.6 mm and a column length of 250 mm containing particles of 5 μm in diameter. 100 μl was injected into the HPLC column at the start of each run and a buffer gradient run through the column, buffer A was 99.9% water and 0.1% TFA, buffer B was 99.9% ACN and 0.1% TFA. For quantification, three samples of each surface were produced and repeated three times.

Molecule	Fmoc-F-OH (%)	Fmoc-FR-OH (%)	cleavage and selectivity for Fmoc-F↓RGD versus Fmoc-FR↓GD	maximum amount of Fmoc-peptide cleaved from the surface (determined by HPLC) [nmol]
B1	60 ± 3.0	40 ± 8.0	highest cleavage but poor selectivity	4.08
B2	40 ± 2.4	27 ± 3.5	poor selectivity	

Reference: US20100143438A1, “BIOMOLECULES” (University of Strathclyde, priority 2006, published 2010)
